# Changes are numbered by the printed parent chain.
# B1: v38592 (M3-H18L6 with HC C-terminal lysine) (antibody, human IgG1, kappa)
# heavy: not shown
# light: EIVLTQSPATLSLSPGERATISCRSSQSLRHSNGNTYLQWYQQKPGQAPRLLIYKVSNRFSGVPARFSGSGSGTDFTLTISSLEPEDFAVYFCYQSKHVPYTFGGGTKVEIKRTVAAPSVFIFPPSDEQLKSGTASVVCLLNNFYPREAKVQWKVDNALQSGNSQESVTEQDSKDSTYSLSSTLTLSKADYEKHKVYACEVTHQGLSSPVTKSFNRGEC
# notes: identical to v37574 but the cDNA of the heavy chains encodes a C-terminal lysine; also called M3-H18L6 (WT) mAb; wild-type M3-H18L6
# B2: v38592-MC-GGFG-AM-Compound 139, DAR 4 (antibody, human IgG1, kappa)
# heavy: not shown
# light: B1 light
# modifications: MC-GGFG-AM-Compound 139 drug-linker on reduced cysteines, sites not stated; MC-GGFG-AM-Compound 139 drug-linker on reduced cysteines, sites not stated; DAR 4 for the whole antibody
# notes: antibody-drug conjugate
# B3: v37575 (codrituzumab) (antibody, human IgG1, kappa, V domains shown)
# VH: QVQLVQSGAEVKKPGASVKVSCKASGYTFTDYEMHWVRQAPGQGLEWMGALDPKTGDTAYSQKFKGRVTLTADKSTSTAYMELSSLTSEDTAVYYCTRFYSYTYWGQGTLVTVSS
# VL: DVVMTQSPLSLPVTPGEPASISCRSSQSLVHSNRNTYLHWYLQKPGQSPQLLIYKVSNRFSGVPDRFSGSGSGTDFTLKISRVEAEDVGVYYCSQNTHVPPTFGQGTKLEIKR
# notes: also called GC33; RG-7686
# B4: v36180 (M3-H1L1) (antibody, human IgG1, kappa, V domains shown)
# VH: EVQLVQSGAEVKKPGSSVKVSCKASGYTFTDYEMHWVRQAPGQGLEWIGAIDPETGDTAYNQKFKGRATLTADKSTSTAYMELSSLRSEDTAVYYCTRYFSFAYWGQGTLVTVSS
# VL: DVQMTQSPSSVSASVGDRVTITCRSSQSLRHSNGNTYLQWYQQKPGKAPKLLIYKVSNRFSGVPSRFSGSGSGTDFTLTISSLQPEDFATYFCYQSKHVPYTFGQGTKVEIKR
# notes: humanized full-size IgG1 (IGHG1*01)/kappa antibody; heavy chain ends at G446 (EU); also called M3-HIL1
# B5: v40215 (H18L6_LC_N33V mAb) (antibody, human IgG1, kappa, V domains shown)
# VH: B4 VH with E1Q, R38K, Q43H, R67K, K74T
# VL: EIVLTQSPATLSLSPGERATISCRSSQSLRHSVGNTYLQWYQQKPGQAPRLLIYKVSNRFSGVPARFSGSGSGTDFTLTISSLEPEDFAVYFCYQSKHVPYTFGGGTKVEIKR
# notes: as for v40203
# B6: v40213 (H18L6_LC_N33E mAb) (antibody, human IgG1, kappa, V domains shown)
# VH: B4 VH with E1Q, R38K, Q43H, R67K, K74T
# VL: B5 VL with V33E
# notes: as for v40203
# Experiments:
# FcgR1A = molecular target: T1, FcgR1A (human, UniProt P12314 16-374); experiment: Membrane Proteome Array: high-throughput flow cytometry on unfixed HEK293T cells, each well expressing one human membrane protein; antibody at 1.25 ug/mL; the text ascribes this to the Fc portion
# T1 construct: whole, on cells
# T1 sequence (P12314 16-374): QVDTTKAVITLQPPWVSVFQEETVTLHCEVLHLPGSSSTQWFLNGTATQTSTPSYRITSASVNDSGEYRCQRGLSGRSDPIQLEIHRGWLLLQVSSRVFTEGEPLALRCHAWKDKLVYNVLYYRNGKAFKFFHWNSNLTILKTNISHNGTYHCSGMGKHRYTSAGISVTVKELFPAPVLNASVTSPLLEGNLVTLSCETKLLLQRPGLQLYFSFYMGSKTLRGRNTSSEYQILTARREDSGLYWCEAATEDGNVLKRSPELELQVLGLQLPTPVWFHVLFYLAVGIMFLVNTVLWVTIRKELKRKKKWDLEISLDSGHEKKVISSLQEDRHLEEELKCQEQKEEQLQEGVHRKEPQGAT
# Description: Briefly, the study consisted of three phases: phase (1) determination of assay screening conditions, phase (2) membrane proteome array (library) screen and phase (3) protein target validation. […] In phase (3), each protein target hit from the screen stage (potential off-target interactions) was assessed in titration experiment using flow cytometry.
# human GPC3 on cells [1] = molecular target: T2, human GPC3 on cells (human, UniProt P51654 25-554); experiment: flow cytometry on JHH-7 cells (GPC3-high), 24 h at 4 C, anti-human IgG Fc AF647
# T2 construct: GPI-anchored protein on transfected CHO-S cells, on human tumor cell lines or on HEK293T cells; the cell is named under assay; also called human GPC3 on CHO-S transfected cells; HuGPC3-CHO
# Description: (§1) Cell lines investigated included GPC3-hi HepG2 and JHH-7 cells, GPC3-mid JHH-5 cells, as well as GPC3-negative SNU-601 cells.
# (§2) Briefly, cells were seeded at 50,000 cells/well in V-bottom 96-well plates and treated with antibody for 24 hours at 4° C. to prevent internalization. […] Following incubation and washing, fluorescence was detected by flow cytometry on a BD LSRFortessa™ Cell Analyzer (BD Biosciences, Franklin Lake, NJ) with 1,000 minimum events collected per well. AF647/APC-A GeoMean (fluorescence signal geometric mean, proportional to anti-Human AF647 binding) in live cell population was plotted against antibody concentration using GraphPad Prism Version 9 (GraphPad Software, San Diego, CA). The Bmax, Curve Hill Slope (h) and Kd values were derived from the “Specific binding with Hill slope” nonlinear regression curve fit in GraphPad Prism Version 9.
# human GPC3 on cells [2] = molecular target: T2, human GPC3 on cells; experiment: flow cytometry on CHO-S cells transiently transfected with human GPC3, 24 h at 4 C, anti-human IgG Fc AF647
# Description: (§3) Briefly, CHO—S cells were transiently transfected for −24 hours with a pTT5-based expression plasmid encoding human GPC3 or cynomolgus monkey GPC3, 0.5 μg DNA per 1 million cells, using the Neon™ Transfection System (Thermo Fisher Scientific Corp., Waltham, MA), to transiently express human or cynomolgus monkey GPC3. Following transfection, cells were seeded at 50,000 cells/well in V-bottom 96-well plates and treated with antibody for 24 hours at 4° C. to prevent internalization. […] Following incubation and washing, fluorescence was detected by flow cytometry on a BD LSRFortessa™ Cell Analyzer (BD Biosciences, Franklin Lake, NJ) with 1,000 minimum events collected per well. AF647/APC-A GeoMean (fluorescence signal geometric mean, proportional to anti-Human AF647 binding) in live cell population was plotted against antibody concentration using GraphPad Prism Version 9 (GraphPad Software, San Diego, CA). The Bmax and Kd values were derived from the “Specific binding with Hill slope” nonlinear regression curve fit in GraphPad Prism Version 9.
# human GPC3 on cells [3] = molecular target: T2, human GPC3 on cells; experiment: flow cytometry on HepG2 cells (GPC3-high), 24 h at 4 C, anti-human IgG Fc AF647
# Description: as §1, §2
# human GPC3 on cells [4] = molecular target: T2, human GPC3 on cells; experiment: flow cytometry on JHH-5 cells (GPC3-mid), 24 h at 4 C, anti-human IgG Fc AF647
# Description: as §1, §2
# [5] = molecular target: T3, recombinant human GPC3 (ACROBiosystems) (human, UniProt P51654 25-559); experiment: SPR
# T3 construct: bought antigen of the SPR assays, SEC purified; also called huGPC3; hGPC3
# human GPC3 on cells [6] = molecular target: T2, human GPC3 on cells; experiment: flow cytometry on HepG2 cells (GPC3-high), 24 h at 4 C, anti-human IgG Fc AF647; remark: listed apart in the source
# Description: as §2
# human GPC3 on cells [7] = molecular target: T2, human GPC3 on cells; experiment: flow cytometry, JHH-7 cells
# Description: as §2
# human GPC3 on cells [8] = molecular target: T2, human GPC3 on cells; experiment: flow cytometry, HepG2 cells; apparent Kd
# Description: as §2
# human GPC3 on cells [9] = molecular target: T2, human GPC3 on cells; experiment: flow cytometry on JHH-7 cells (GPC3-high), 24 h at 4 C, anti-human IgG Fc AF647; remark: listed apart in the source
# Description: as §2
# [10] = molecular target: KLH (Sigma-Aldrich, H8283); experiment: NS-ELISA, plate coated with KLH, antibody at 100 nM
# Description: 50 μL each of insulin, KLH, dsDNA and ssDNA were added to a 96 well plate, followed by the incubation at 37° C. for 2 h. The coating materials were removed, and the plate was blocked with 200 μL of Gibco™ PBS pH7.4, 0.1% Tween®20, and incubated for 1 h at room temperature with shaking at 200 rpm. The plate was washed 3 times with Gibco™ PBS pH7.4, 0.1% Tween 20. 50 μL of each mAb at 100 nM (15 mg/mL) in Gibco™ PBS pH 7.4, 0.1% Tween®20 was added in duplicate to the wells and incubated for 1 h at room temperature with shaking at 200 rpm. Plates were washed three times with Gibco™ PBS pH7.4, 0.1% Tween 20, and 50 μL of 50 ng/mL anti-human IgG HRP (Thermofisher Scientific©, H₁₀₃₀₇) was added to each well. Plates were incubated for 1 h at room temperature, with shaking at 200 rpm. The plate was washed three times with Gibco™ PBS pH7.4, 0.1% Tween 20, and 100 μL of TMB substrate (Cell Signaling Technology©, 7004P6) added to each well. […] Binding scores were calculated as the ratio of the ELISA signal of the antibody to the signal of a well containing buffer instead of the primary antibody. The cutoffs considered for each binding molecule (ssDNA. KLH, Insulin, dsDNA and Heparin) were internally calculated.
# [11] = molecular target: T4, cynomolgus monkey GPC3 on CHO-S transfected cells (cynomolgus monkey, UniProt A5A6P7 25-554 (Pan troglodytes entry)); experiment: flow cytometry, CHO-S cells transfected with cynomolgus monkey GPC3; apparent Kd
# T4 construct: transient expression from a pTT5-based plasmid; also called CHO-S Cyno GPC3; CynoGPC3-CHO
# Description: as §3
# [12] = molecular target: T3, recombinant human GPC3 (ACROBiosystems); experiment: SPR, antibody captured on anti-Fc, GPC3 injected, 1:1 fit
# Description: (§4) Antigens: recombinant human and cynomolgus GPC3 was purchased from ACROBiosystems (Newark, DE) and SEC purified on a Superdex 200 10/300 GL column (Cytiva) in PBST running buffer at 0.8 mL/min.
# (§5) Screening of the antibodies for binding to GPC3 antigen was conducted via anti-Fc capture of antibodies, followed by the injection of five concentrations of GPC3. The anti-Fc surface was prepared on a CM5 Series S sensor chip by standard amine coupling methods as described by the manufacturer (Cytiva Life Sciences, Mississauga, ON, Canada). […] Approximately 500-600 RUs of each antibody (1-3 μg/mL) were captured on the goat anti-human IgG surface by injecting at 10 μL/min for 60s. Using single-cycle kinetics, five concentrations of a two-fold dilution series of human or cynomolgus GPC3 starting at 40 nM (or 20 nM) with a blank buffer control were injected at 40 μL/min for 180s of contact time, followed by 180 s (or 300 s) dissociation phase, resulting in sensorgrams with a buffer blank reference. The anti-Fc surface was regenerated to prepare for the next injection cycle by one pulse of 10 mM glycine/HCl pH 1.5 for 180 s at 40 μL/min. Blank-subtracted sensorgrams were analyzed using Biacore™ T200 Evaluation Software v3.0. The blank-subtracted sensorgrams were then fit to the 1:1 Langmuir binding model.
# [13] = molecular target: T5, recombinant cynomolgus GPC3 (ACROBiosystems) (cynomolgus monkey, UniProt A5A6P7 25-559 (Pan troglodytes entry), limits assumed); experiment: as above
# T5 construct: bought antigen of the SPR assays; also called cynoGPC3
# Description: as §4, §5
# [14] = molecular target: T3, recombinant human GPC3 (ACROBiosystems); experiment: SPR; Kd on huGPC3 over Kd on cynoGPC3
# Description: as §4, §5
# human GPC3 on cells [15] = molecular target: T2, human GPC3 on cells; experiment: flow cytometry, JHH-7 cells; apparent Kd
# Description: as §2
# human GPC3 on cells [16] = molecular target: T2, human GPC3 on cells; experiment: cell-based or functional assay
# human GPC3 on cells [17] = molecular target: T2, human GPC3 on cells; experiment: flow cytometry, CHO-S cells transfected with human GPC3; apparent Kd
# Description: as §3
# human GPC3 on cells [18] = molecular target: T2, human GPC3 on cells; experiment: flow cytometry, HepG2 cells
# Description: as §2
# human GPC3 on cells [19] = molecular target: T2, human GPC3 on cells; experiment: flow cytometry, JHH-7 cells; remark: listed apart in the source
# human GPC3 on cells [20] = molecular target: T2, human GPC3 on cells; experiment: flow cytometry, JHH-5 cells
binder,measurement,setting,value
B1,binding result,FcgR1A,binds
B2,EC50 (read off the curve),human GPC3 on cells [1],~0.9 nM
same,EC50 (read off the curve),human GPC3 on cells [2],~0.3 nM
same,EC50 (read off the curve),human GPC3 on cells [3],~9 nM
same,EC50 (read off the curve),human GPC3 on cells [4],~0.4 nM
B3,fold higher affinity than M3-H18L6,[5],~10 fold
same,EC50 (read off the curve),human GPC3 on cells [6],~1 nM
same,Bmax,human GPC3 on cells [7],9000
same,Kd,human GPC3 on cells [8],1.2 nM
same,EC50 (read off the curve),human GPC3 on cells [9],~0.3 nM
same,NS-ELISA binding score,[10],1.11 ratio to buffer well
same,Kd,[11],0.98 nM
same,Kd,[12],0.91 nM
same,Kd,[13],0.91 nM
same,Fold difference (hu/cyno),[14],1 fold
same,Kd,human GPC3 on cells [15],0.26 nM
same,"internalized fluorescence, fold increase over palivizumab, Hep G2, 5 hours, 10 nM",human GPC3 on cells [16],14.4 fold
same,"internalized fluorescence, fold increase over palivizumab, Hep G2, 24 hours, 10 nM",human GPC3 on cells [16],57.2 fold
same,"internalized fluorescence, fold increase over palivizumab, JHH-7, 5 hours, 10 nM",human GPC3 on cells [16],8.5 fold
same,"internalized fluorescence, fold increase over palivizumab, JHH-7, 24 hours, 10 nM",human GPC3 on cells [16],46.7 fold
same,Kd,human GPC3 on cells [17],1.23 nM
same,Bmax,human GPC3 on cells [18],42300
B4,EC50 (read off the curve),human GPC3 on cells [6],~0.9 nM
same,Bmax,human GPC3 on cells [7],9340
same,Kd,human GPC3 on cells [8],0.91 nM
same,EC50 (read off the curve),human GPC3 on cells [9],~0.3 nM
same,NS-ELISA binding score,[10],5.45 ratio to buffer well
same,Kd,[12],10.5 nM
same,Kd,[13],9.67 nM
same,Fold difference (hu/cyno),[14],1.1 fold
same,Kd,human GPC3 on cells [15],0.25 nM
same,"internalized fluorescence, fold increase over palivizumab, Hep G2, 5 hours, 10 nM",human GPC3 on cells [16],17 fold
same,"internalized fluorescence, fold increase over palivizumab, Hep G2, 24 hours, 10 nM",human GPC3 on cells [16],66.2 fold
same,"internalized fluorescence, fold increase over palivizumab, JHH-7, 5 hours, 10 nM",human GPC3 on cells [16],8.6 fold
same,"internalized fluorescence, fold increase over palivizumab, JHH-7, 24 hours, 10 nM",human GPC3 on cells [16],46.4 fold
same,Bmax,human GPC3 on cells [18],40000
B5,fold increase in Kd from wild-type,human GPC3 on cells [19],> 2 fold
B6,fold increase in Kd from wild-type,human GPC3 on cells [20],~29 fold

# From patent US20250295799A1 (Zymeworks, published 2025)
